The results in this text go back to patent publication US20030114404, “Vascular endothelial growth factor (VEGF) nucleic acid ligand complexes” (Gilead Sciences, Inc., published 2003).

B1: VP40.9 (ssRNA)
RNA: GGGAGGACGAUGCGGGAGCAGAACCGAUAGAAGAAUUGGACGCUCAGCUCCGGGUCAGACGACUCGCCCGA
modifications: 2'-F pyrimidines
B2: VP40.17 (ssRNA)
RNA: GGGAGGACGAUGCGGUGAACCGAUGGAAUCGCUUGGACGCUCAUCGCACGUUGCUCAGACGACUCGCCCGA
modifications: 2'-F pyrimidines
B3: VT30.20 (ssRNA)
RNA: GGGAGGACGAUGCGGAAACGGAAGAAUUGGAUACCGCUACGUGUUCAGACGACUCGCCCGA
modifications: 2'-F pyrimidines
B4: VP30.7 (ssRNA)
RNA: GGGAGGACGAUGCGGAAGAAUUGGUCAUCGUCGUCUCCGCCUCCCCAGACGACUCGCCCGA
modifications: 2'-F pyrimidines
B5: VT30.52 (ssRNA)
RNA: GGGAGGACGAUGCGGAAGAAUUGAGCAUUCCUUCUCCUUGUGCCUCAGACGACUCGCCCGA
modifications: 2'-F pyrimidines
B6: VT30.23 (ssRNA)
RNA: GGGAGGACGAUGCGGGAUCACGAUACUUGACGAUUUUCCUCUCCUCAGACGACUCGCCCGA
modifications: 2'-F pyrimidines
B7: VP40.53 (ssRNA)
RNA: GGGAGGACGAUGCGGUGAGAGAAACGGAAGAAUUGGAUACGAUACUCAUCGCGCUCAGACGACUCGCCCGA
modifications: 2'-F pyrimidines
B8: VT30.10 (ssRNA)
RNA: GGGAGGACGAUGCGGAACGGAAGAAUUGGAUACGUAGCAUGCGUCAGACGACUCGCCCGA
modifications: 2'-F pyrimidines
B9: VP30.13 (ssRNA)
RNA: GGGAGGACGAUGCGGGAUAACAGAAGAAUUGGUGAACAACGUGGUCAGACGACUCGCCCGA
modifications: 2'-F pyrimidines
B10: VT30.8 (ssRNA)
RNA: GGGAGGACGAUGCGGUUGAUCGAUUUUCCUGGCGUCCUUAUGGGUCAGACGACUCGCCCGA
modifications: 2'-F pyrimidines
B11: VT30.13 (ssRNA)
RNA: GGGAGGACGAUGCGGCAGGAUUUUGGAAGAAUUGGAUAUUGGCCGCAGACGACUCGCCCGA
modifications: 2'-F pyrimidines
B12: VP40.47 (ssRNA)
RNA: GGGAGGACGAUGCGGCAGUUAAUUAAUUUGAGUUGUGAUGUGUGUCGUUAUGGGCCAGACGACUCGCCCGA
modifications: 2'-F pyrimidines
B13: VP40.4 (ssRNA)
RNA: GGGAGGACGAUGCGGGAAGAAUUGAUGUUGUAUUGUCCUUCCGAUUUCCUGCCGUCAGACGACUCGCCCGA
modifications: 2'-F pyrimidines
B14: VT30.27 (ssRNA)
RNA: GGGAGGACGAUGCGGGAUCACGGCUUUGCACGAUCUUCUUCUCCUCAGACGACUCGCCCGA
modifications: 2'-F pyrimidines
B15: VT30.38 (ssRNA)
RNA: GGGAGGACGAUGCGGAGCGGUAUUCUGUUCGGUCGUUUUCCUCCUCAGACGACUCGCCCGA
modifications: 2'-F pyrimidines
B16: VP40.41 (ssRNA)
RNA: GGGAGGACGAUGCGGCAAAUUCAAGGUCGAGUUAUGCGUAGAUGUGGCUCCUGUGCAGACGACUCGCCCGA
modifications: 2'-F pyrimidines
B17: VT30.40 (ssRNA)
RNA: GGGAGGACGAUGCGGAUUUGGAUGCAUGUCAAGGCGUUUUGCCCUCAGACGACUCGCCCGA
modifications: 2'-F pyrimidines
B18: VP30.12 (ssRNA)
RNA: GGGAGGACGAUGCGGAAUACGGAAGAAUUGGAUACAUAUGCUCGUCAGACGACUCGCCCGA
modifications: 2'-F pyrimidines
B19: VP30.31 (ssRNA)
RNA: GGGAGGACGAUGCGGUAACCGAUUGAACUUCUUGGACGCUACCGUCAGACGACUCGCCCGA
modifications: 2'-F pyrimidines
B20: VP30.51 (ssRNA)
RNA: GGGAGGACGAUGCGGAGUUUUGGAAGAAUUGGAUGUUCCGAUCGUCAGACGACUCGCCCGA
modifications: 2'-F pyrimidines
B21: VP30.54 (ssRNA)
RNA: GGGAGGACGAUGCGGAAGAAACGGAAGAAUUGGAGACACGCUCGUCAGACGACUCGCCCGA
modifications: 2'-F pyrimidines
B22: VT30.53 (ssRNA)
RNA: GGGAGGACGAUGCGGAGCUAACGGAAGAAUUGGAAACAACCGCGUCAGACGACUCGCCCGA
modifications: 2'-F pyrimidines
B23: VP30.43 (ssRNA)
RNA: GGGAGGACGAUGCGGUAACCGAAUUGAAGUUAUUGGACGCUACCUCAGACGACUCGCCCGA
modifications: 2'-F pyrimidines
B24: VT30.4 (ssRNA)
RNA: GGGAGGACGAUGCGGCUUAAGUUUUGGAAGAAUUGAAUACUGGGUCAGACGACUCGCCCGA
modifications: 2'-F pyrimidines
B25: VT30.7 (ssRNA)
RNA: GGGAGGACGAUGCGGUAACCAGUGGAAGAAUUGGCUGCUAUCCUCAGACGACUCGCCCGA
modifications: 2'-F pyrimidines
B26: VP30.41 (ssRNA)
RNA: GGGAGGACGAUGCGGUAGGAAGUAUUGUAAGCGCCUCGUUUUCGCCAGACGACUCGCCCGA
modifications: 2'-F pyrimidines
B27: VP30.16 (ssRNA)
RNA: GGGAGGACGAUGCGGAUGAUCGCGUAGGAAGUAUUGGAAGGCCCUCAGACGACUCGCCCGA
modifications: 2'-F pyrimidines
B28: VP40.43 (ssRNA)
RNA: GGGAGGACGAUGCGGACAGAAGAAUUGGGCUUCGCAUUAUCCUCUGUCAGCCGCCAGACGACUCGCCCGA
modifications: 2'-F pyrimidines
B29: VP40.14 (ssRNA)
RNA: GGGAGGACGAUGCGGGUACCAGAAUGAGCAACCGAAUGAAGAACUGGACGCUGCUCAGACGACUCGCCCGA
modifications: 2'-F pyrimidines
B30: VT30.12 (ssRNA)
RNA: GGGAGGACGAUGCGGUCUUUGGGUUUUUGCCAACGGUUUUCGCUCAGACGACUCGCCCGA
modifications: 2'-F pyrimidines
B31: VT30.18 (ssRNA)
RNA: GGGAGGACGAUGCGGUUCAGAAUUGGCUGCGAUCCUUUUCCCCCUCAGACGACUCGCCCGA
modifications: 2'-F pyrimidines
B32: VT30.9 (ssRNA)
RNA: GGGAGGACGAUGCGGUCAACCGGUUGAAUAUUUGGUCGCUGACCUCAGACGACUCGCCCGA
modifications: 2'-F pyrimidines
B33: VP40.44 (ssRNA)
RNA: GGGAGGACGAUGCGGAUCUGUUGAACUGGGUUUUGCCGACGGUUACGCUUUUGCUCAGACGACUCGCCCGA
modifications: 2'-F pyrimidines

Sequence of VEGF165 (P15692 other isoform, or with tags, fused parts or gaps): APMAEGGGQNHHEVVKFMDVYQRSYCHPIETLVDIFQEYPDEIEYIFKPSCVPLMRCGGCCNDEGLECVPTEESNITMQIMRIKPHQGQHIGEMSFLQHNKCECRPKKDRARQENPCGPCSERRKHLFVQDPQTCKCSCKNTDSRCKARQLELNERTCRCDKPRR

The target of this series is VEGF165 (Homo sapiens, UniProt P15692-4 P15692-4:27-191). The series is described as follows: filter; 37 C. The settings on record: tags: carrier-free, Sf 21 insect cell expressed, R & D Systems; chain copies: 2 (inferred). Here is the method:
Nucleic Acid Ligands radiolabeled during transcription by incorporation of α-[³²P]-labeled NTPs, or after synthesis using γ-[³²P]-ATP and T4 polynucleotide kinase, were incubated in low concentration (between 20 and 70 pM) with varying concentrations of VEGF or other growth factors at 37° C. for 15 minutes. Incubations were in TBS, PBS, or HEPES-buffered saline (HBS), pH 7.4, with or without the addition of supplemental divalent cations. Samples were passed through prewashed 0.45 μ Type HA filters (Millipore) followed by a 5-10 ml wash with binding buffer. Filters were immersed in scintillant and counted to quantitate the amount of protein-bound RNA retained by each filter. The equilibrium dissociation constant (KD) of Nucleic Acid Ligand binding to a specific protein was calculated from the data points as described in Green et al. (1996) Biochem. 35: 14413-14424.
B1 displayed a Kd of 30 pM.
The same measure for B2: 10 pM; for B3: 4 pM; for B4: 3000 pM.
In turn, B5 yielded a Kd of 9000 pM.
The same measure for B6: 19 pM.
In turn, B7 gave a Kd of 8 pM.
Turning to B8, the Kd was found to be 2 pM.
For the molecule B9, the affinity, expressed as Kd, was 10 pM.
B10 gave a Kd of 34 pM.
B11 gave a Kd of 10 pM.
For the molecule B12, the Kd is 96 pM.
B13 showed a Kd of 200 pM.
The same measure for B14: 120 pM; for B15: 5 pM; for B16: 11000 pM.
The same measure for B17: 30 pM.
Then B18, with 7 pM; and B19, with 6 pM.
Take B20: binding was put at a Kd of 90 pM.
Then B21, with 10 pM; and B22, with 10 pM; and B23, with 5 pM.
Regarding B24, binding was put at a Kd of 20 pM.
Then B25, with 10 pM.
The molecule B26 displayed a dissociation constant (Kd) of 7 pM.
The same measure for B27: 6 pM.
Then B28, with 30 pM; and B29, with 8 pM; and B30, with 9 pM.
Then B31, with 4 pM.
B32 displayed a Kd of 30 pM.
The same measure for B33: 43 pM.

The term Kd denotes the concentration at which binding is half-saturated.
